Assay results reported in PMC6836825, “K^+ Channel-SEC11 Binding Exchange Regulates SNARE Assembly for Secretory Traffic^1” (Plant Physiology, 2019).

T1: Flag3-SNAP33-6His (Arabidopsis thaliana, UniProt Q9S7P9 1-300)
T1 construct: Qbc-SNARE SNAP33, Arabidopsis thaliana, At5G61210; not shown: Flag3, N-terminal, kept; 6His, C-terminal, kept
T1 sequence (looked up): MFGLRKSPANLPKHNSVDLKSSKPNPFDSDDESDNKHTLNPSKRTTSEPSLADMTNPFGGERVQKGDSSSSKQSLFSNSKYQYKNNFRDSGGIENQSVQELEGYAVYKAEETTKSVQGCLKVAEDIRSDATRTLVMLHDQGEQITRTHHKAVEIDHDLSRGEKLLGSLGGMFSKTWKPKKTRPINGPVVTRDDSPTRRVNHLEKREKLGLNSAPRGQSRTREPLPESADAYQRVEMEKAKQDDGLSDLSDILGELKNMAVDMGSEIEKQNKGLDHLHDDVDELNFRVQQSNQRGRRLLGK

B1: KC1^67–91-Flag3-StrepII (domain or fragment, Arabidopsis thaliana, UniProt P92960 67-91, looked up)
chain: IEDDNPSSKPFIVLHFDRRYRLWEL
notes: KC1 K+ channel subunit, Arabidopsis thaliana, At4g32650, N-terminal cytosolic domain residues 67-91; also called KC1^67–91 peptide; KC1^67–91-3flag-StrepII; not shown: Flag3, C-terminal, kept; StrepII, C-terminal, kept
B2: KAT1^1–63-Flag6-StrepII (domain or fragment, Arabidopsis thaliana, UniProt Q39128 1-63, looked up)
chain: MSISWTRNFFERFCVEEYNIDTIKQSSFLSADLLPSLGARINQSTKLRKHIISPFNPRYRAWE
notes: KAT1 K+ channel, Arabidopsis thaliana, At5g46240, N-terminal cytosolic domain residues 1-63; also called KAT1^1–63 peptide; KAT1^1–63-6flag-StrepII; not shown: Flag6, C-terminal, kept; StrepII, C-terminal, kept

Target: T1, Flag3-SNAP33-6His
Assay: pull-down; KC1^67–91-Flag3-StrepII or KAT1^1–63-Flag6-StrepII immobilised on Strep-Tactin resin; one prey at a time in 3-fold excess; overnight at 4°C; SDS-PAGE, Coomassie
Conditions: both partners purified

| Binder | binding result |
| --- | --- |
| B1 | binds |
| B2 | binds |
